In patent publication US20190071517A1 (KANAGAWA PREFECTURAL HOSPITAL ORGANIZATION, published 2019):

Legend:
HEG1 1kb = molecular target: T1, HEG1 1kb (human, UniProt Q9ULI3 986-1381); test: Western blot of cell lysate
T1 construct: Inserted into pFLAG-CMV1, expressed in ACC-MESO-1; also called fragment 1kb
T1 sequence: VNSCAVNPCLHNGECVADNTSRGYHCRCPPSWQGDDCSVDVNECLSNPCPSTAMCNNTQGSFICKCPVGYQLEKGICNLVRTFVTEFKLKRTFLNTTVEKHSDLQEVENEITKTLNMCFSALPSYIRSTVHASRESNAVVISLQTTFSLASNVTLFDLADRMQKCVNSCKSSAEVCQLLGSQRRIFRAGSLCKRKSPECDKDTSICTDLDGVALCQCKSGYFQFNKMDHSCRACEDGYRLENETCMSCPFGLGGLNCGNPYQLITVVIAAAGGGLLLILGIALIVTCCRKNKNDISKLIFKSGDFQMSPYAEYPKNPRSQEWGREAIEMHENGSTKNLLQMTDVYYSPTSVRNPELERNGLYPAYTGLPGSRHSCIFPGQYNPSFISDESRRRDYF
Procedure: Gene transfer was performed with HEG1 siRNA (H9106) (SEQ ID NOs: 40, 41) and human HEG1 for the mesothelioma cell line ACC-MESO-1, and the reactivity of the SKM9-2 was examined through Western blot analysis. A full length protein (HEG1 full length) or a fragment (HEG1 3kb, HEG1 2kb, or HEG1 1kb) of the human HEG1 was used. The full length human HEG1 protein, a protein having the amino acid sequence set forth in SEQ ID NO: 35, was obtained through inserting a base sequence set forth in SEQ ID NO: 34 into pFLAG-CMV1 (Sigma-Aldrich Japan K.K.) to obtain a plasmid, transforming the plasmid, and allowing the mesothelioma cell line to express the plasmid. Fragment HEG1 3kb was obtained through inserting a fragment corresponding to a sequence from position 285, leucine, to position 1387, phenylalanine, of SEQ ID NO: 35 into pFLAG-CMV1 (Sigma-Aldrich Japan K.K.) in an in-frame manner, and allowing the mesothelioma cell line to express the resultant. […] Each cell lysate was analyzed through Western blot with the SKM9-2 antibody.

HEG1 3kb = molecular target: T2, HEG1 3kb (human, UniProt Q9ULI3 285-1381); test: Western blot of ACC-MESO-1 cell lysate
T2 construct: Inserted in frame into pFLAG-CMV1, expressed in ACC-MESO-1; what the vector adds is not described; also called fragment 3kb
T2 sequence: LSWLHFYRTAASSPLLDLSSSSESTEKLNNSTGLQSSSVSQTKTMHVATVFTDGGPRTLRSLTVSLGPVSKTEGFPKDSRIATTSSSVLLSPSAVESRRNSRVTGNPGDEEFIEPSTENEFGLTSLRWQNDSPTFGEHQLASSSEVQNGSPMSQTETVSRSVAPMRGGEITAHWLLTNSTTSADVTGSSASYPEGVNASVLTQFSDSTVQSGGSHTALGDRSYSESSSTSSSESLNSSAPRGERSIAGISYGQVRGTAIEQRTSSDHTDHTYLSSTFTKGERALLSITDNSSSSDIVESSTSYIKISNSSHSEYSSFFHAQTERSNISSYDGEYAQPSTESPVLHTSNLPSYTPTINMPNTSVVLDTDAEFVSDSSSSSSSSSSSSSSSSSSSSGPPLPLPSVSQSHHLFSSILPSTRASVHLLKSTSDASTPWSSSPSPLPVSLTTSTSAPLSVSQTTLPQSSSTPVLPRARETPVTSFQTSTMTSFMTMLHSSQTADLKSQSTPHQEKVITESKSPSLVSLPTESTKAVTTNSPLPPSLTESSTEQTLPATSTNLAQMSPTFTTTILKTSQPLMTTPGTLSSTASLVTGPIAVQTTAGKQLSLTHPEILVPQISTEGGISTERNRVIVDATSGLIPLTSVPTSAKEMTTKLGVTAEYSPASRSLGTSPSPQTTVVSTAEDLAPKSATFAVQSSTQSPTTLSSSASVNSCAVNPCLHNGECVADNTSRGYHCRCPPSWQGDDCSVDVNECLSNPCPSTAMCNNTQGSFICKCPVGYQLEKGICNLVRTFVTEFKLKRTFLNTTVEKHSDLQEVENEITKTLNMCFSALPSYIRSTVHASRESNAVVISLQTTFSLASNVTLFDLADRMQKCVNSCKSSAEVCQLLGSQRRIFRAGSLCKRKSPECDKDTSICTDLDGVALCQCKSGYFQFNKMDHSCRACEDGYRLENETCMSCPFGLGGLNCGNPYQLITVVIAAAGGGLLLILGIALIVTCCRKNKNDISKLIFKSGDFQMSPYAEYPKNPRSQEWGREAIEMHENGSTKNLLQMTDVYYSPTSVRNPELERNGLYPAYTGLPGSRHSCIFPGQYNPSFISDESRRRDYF
Procedure: (§1) Gene transfer was performed with HEG1 siRNA (H9106) (SEQ ID NOs: 40, 41) and human HEG1 for the mesothelioma cell line ACC-MESO-1, and the reactivity of the SKM9-2 was examined through Western blot analysis. A full length protein (HEG1 full length) or a fragment (HEG1 3kb, HEG1 2kb, or HEG1 1kb) of the human HEG1 was used. The full length human HEG1 protein, a protein having the amino acid sequence set forth in SEQ ID NO: 35, was obtained through inserting a base sequence set forth in SEQ ID NO: 34 into pFLAG-CMV1 (Sigma-Aldrich Japan K.K.) to obtain a plasmid, transforming the plasmid, and allowing the mesothelioma cell line to express the plasmid. Fragment HEG1 3kb was obtained through inserting a fragment corresponding to a sequence from position 285, leucine, to position 1387, phenylalanine, of SEQ ID NO: 35 into pFLAG-CMV1 (Sigma-Aldrich Japan K.K.) in an in-frame manner, and allowing the mesothelioma cell line to express the resultant. HEG1 2kb and HEG1 1kb were obtained through allowing the mesothelioma cell line to express products similarly obtained from a fragment corresponding to a sequence from position 677, leucine, to position 1387, phenylalanine, of SEQ ID NO: 35 and a fragment corresponding to a sequence from position 992, valine, to position 1387, phenylalanine, of SEQ ID NO: 35, respectively. Each cell lysate was analyzed through Western blot with the SKM9-2 antibody.

HEG1 2kb = molecular target: T3, HEG1 2kb (human, UniProt Q9ULI3 671-1381); test: Western blot of ACC-MESO-1 cell lysate
T3 construct: Inserted into pFLAG-CMV1, expressed in ACC-MESO-1; also called fragment 2kb
T3 sequence: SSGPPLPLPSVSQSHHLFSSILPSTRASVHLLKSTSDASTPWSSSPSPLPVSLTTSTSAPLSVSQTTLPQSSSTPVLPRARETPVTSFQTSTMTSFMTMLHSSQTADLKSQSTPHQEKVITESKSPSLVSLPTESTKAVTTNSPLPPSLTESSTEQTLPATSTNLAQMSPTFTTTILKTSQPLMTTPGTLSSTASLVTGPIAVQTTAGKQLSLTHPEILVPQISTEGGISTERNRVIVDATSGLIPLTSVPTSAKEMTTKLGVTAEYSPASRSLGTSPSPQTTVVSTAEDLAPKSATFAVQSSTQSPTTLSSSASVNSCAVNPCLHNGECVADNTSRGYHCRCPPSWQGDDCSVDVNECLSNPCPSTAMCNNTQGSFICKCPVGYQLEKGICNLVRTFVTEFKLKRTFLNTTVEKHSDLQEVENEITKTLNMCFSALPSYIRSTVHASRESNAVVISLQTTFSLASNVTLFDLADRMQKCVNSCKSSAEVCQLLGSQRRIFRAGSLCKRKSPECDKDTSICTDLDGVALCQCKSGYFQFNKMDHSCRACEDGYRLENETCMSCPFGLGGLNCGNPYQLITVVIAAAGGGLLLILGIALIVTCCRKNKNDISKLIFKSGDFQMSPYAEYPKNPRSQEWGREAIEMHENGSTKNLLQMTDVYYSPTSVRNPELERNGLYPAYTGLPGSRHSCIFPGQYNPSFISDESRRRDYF
Procedure: as §1

[1] = molecular target: T4, HEG1 full length (full length human HEG1 protein expressed in ACC-MESO-1) (human, UniProt Q9ULI3 30-1381, limits assumed); test: Western blot of ACC-MESO-1 cell lysate
T4 construct: Full length; expressed from pFLAG-CMV1 in ACC-MESO-1 with the endogenous HEG1 knocked down; cell lysate in Western blot; What the vector adds is not described; also called full length protein
T4 sequence: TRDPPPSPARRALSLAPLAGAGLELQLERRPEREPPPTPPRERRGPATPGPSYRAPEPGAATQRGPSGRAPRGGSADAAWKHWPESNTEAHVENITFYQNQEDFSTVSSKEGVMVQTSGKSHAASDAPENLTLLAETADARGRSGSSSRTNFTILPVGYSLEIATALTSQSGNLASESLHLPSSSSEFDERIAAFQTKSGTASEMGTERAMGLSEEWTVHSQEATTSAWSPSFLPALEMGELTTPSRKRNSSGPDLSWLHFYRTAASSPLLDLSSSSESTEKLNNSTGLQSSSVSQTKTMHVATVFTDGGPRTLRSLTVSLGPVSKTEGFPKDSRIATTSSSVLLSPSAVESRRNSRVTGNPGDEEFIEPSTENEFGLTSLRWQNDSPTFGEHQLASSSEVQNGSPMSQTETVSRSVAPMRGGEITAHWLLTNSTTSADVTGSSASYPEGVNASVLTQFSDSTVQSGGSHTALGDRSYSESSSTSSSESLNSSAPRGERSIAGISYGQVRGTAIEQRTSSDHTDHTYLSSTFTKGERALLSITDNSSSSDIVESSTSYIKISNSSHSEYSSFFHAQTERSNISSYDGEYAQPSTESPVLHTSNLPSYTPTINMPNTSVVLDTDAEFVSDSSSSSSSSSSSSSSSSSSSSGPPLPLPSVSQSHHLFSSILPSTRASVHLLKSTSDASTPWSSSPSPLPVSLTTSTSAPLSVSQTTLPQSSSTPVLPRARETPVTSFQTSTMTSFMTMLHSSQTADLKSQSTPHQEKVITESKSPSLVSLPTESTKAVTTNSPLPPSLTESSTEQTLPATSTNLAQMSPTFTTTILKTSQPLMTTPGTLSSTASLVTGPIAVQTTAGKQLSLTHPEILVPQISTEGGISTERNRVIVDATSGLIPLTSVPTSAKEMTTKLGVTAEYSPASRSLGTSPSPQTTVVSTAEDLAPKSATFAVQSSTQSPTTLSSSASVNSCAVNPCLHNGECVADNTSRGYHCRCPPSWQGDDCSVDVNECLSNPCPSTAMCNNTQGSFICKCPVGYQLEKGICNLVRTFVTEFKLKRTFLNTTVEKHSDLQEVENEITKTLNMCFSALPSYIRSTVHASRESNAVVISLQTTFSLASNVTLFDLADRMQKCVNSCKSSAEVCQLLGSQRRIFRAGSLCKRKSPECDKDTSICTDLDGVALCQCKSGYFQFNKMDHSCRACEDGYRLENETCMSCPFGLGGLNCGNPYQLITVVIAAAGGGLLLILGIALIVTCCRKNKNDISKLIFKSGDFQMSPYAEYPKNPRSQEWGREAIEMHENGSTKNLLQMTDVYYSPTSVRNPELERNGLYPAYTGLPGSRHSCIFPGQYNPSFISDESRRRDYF
Procedure: as §1

- binding result (HEG1 1kb): no binding
- binding result (HEG1 3kb): binds
- binding result (HEG1 2kb): binds
- binding result [1]: binds
B1: SKM9-2 antibody (antibody, mouse IgG1, kappa, V domains shown)
VH: QVQLQQPGAELVRPGASVKLSCKASGFSFTTYWITWVKQRPGQGLEWIGMIHPSDSETRLSQTFKDKATLTVDKSSNTAYMQFSSPTSEDSAVYYCVRDFDVWGAGTTVTVSS
VL: DVLMTQTPLSLPVSLGDQASISCRSSQNIVHNNGNTYLGWYLQKPGQSPKLLIFKVSNRFSGVPDRFSGSGSGTDFTLKISRVEAEDLGVYYCFQGSHIPRTFGGGTRLEIKR
notes: also called monoclonal antibody produced from the SKM9-2 hybridoma
